Experimental data taken from publication PMC11372834.

Molecular target: human RXFP1 (human) (UniProt Q9HBX9)
Chain of UniProt Q9HBX9 (Q9HBX9 whole entry): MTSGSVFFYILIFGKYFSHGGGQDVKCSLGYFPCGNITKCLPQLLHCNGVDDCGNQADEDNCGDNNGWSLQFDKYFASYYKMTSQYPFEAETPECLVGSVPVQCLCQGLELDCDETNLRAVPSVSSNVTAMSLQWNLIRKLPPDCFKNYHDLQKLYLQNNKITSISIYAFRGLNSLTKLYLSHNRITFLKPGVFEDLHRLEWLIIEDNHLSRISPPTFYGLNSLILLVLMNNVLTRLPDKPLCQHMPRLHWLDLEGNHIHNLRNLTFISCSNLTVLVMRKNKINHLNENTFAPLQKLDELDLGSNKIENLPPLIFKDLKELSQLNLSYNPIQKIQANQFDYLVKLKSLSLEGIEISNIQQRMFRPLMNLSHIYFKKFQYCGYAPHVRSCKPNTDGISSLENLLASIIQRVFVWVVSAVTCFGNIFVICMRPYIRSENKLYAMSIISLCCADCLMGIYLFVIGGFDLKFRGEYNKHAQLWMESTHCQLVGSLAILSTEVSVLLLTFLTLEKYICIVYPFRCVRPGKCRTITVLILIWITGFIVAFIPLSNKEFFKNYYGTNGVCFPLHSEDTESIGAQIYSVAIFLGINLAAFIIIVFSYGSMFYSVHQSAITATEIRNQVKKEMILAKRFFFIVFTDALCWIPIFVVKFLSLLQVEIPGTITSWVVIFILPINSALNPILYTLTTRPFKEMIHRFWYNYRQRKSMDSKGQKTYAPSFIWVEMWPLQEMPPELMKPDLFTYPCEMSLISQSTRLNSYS

native relaxin-2 (ligand)
EC50, Gs signaling (CRE-SEAP, Figure 1c and Table S1): 0.1 nM
